Results: the DeepSol protein solubility set

Test: soluble on expression in E. coli; label from the status in PepcDB or PDB records

| Sequence | soluble on expression in E. coli |
| --- | --- |
| MSRVKNVVELLETKGVDALYLTKKTNVNYISGFPDEEAYAVICKDGNFLVTDSRYMELAEKVCKDFEIINWHNFDRSVAKAVKSVCDKVGIKKLGFERTNIVFDKYEELKNLIEKDNGELIPTENIVETLRYVKDKDEIKNTRKACEIADKALEELIPHIKAGVSEIELATKLEYFMKMNGAQNIGFETILISGAKTSLLHGKPSDKIIEKGDFVLIDYGAMYNGYISDTTRTFIVGGASEKQLEIYNLVKEAQNVGVENMKAGVHATIPDAEIRKVVKKYEDYYYQGIGHGVGRDVHEEPFIGNYGDKIIEEGCIITMEPGIYFPGWGGVRIEDTVLITKNGPERLTKFPKDLMILDK | not soluble |
| MRDPNKWAEVKKTLPLVGAGRSGGRFRHPSARGKLTVQYVNRVRHYYDLLVRLSEKKRSGPSGRGLEHHHHHH | not soluble |
| MGQAGKQVAPVKCKGWAVEKPALKWSTDAVRLSDVTVPAPDPTQIRVRVYAASINPVDWKRVMFPASGSGPGVAGSALKGFKGMHHKPPNYPYPYVVGVDGAGEVESVGRKVTGLKAGDRVMFHSSLTNAHGGSLCEYAVMEESVAVPIPADGARPFSYEEAAAIPCATWTAYVALFDKLRIEPGRSIFVDGASGAVGSCAVQLAHHMGLYVFASCSPSNADYVRSIGADQVLNYHDGIEMVDQILDATEGYGVDYYLAVTNTQDAESFTDALRFGGAVCLLSGVLIPNSNVLFRRQLSVHYVFLNGLHGHPLTRPQLRYIGDQVAKLYQSGAFRLD | not soluble |
| MGSDKIHHHHHHMSHVSLKDVQVLAPNFKRRLSGVTSTIVQLIPVQNRLGQKVGTIGPGLPPHLPHVRFRDLWRLWQNGPSGGPRIWHARRNLEMLPGIFMRDVLRMKVKLLFTSAAQRRHSAYTRFLISKMDAVVATSTRSGSFLEVPHRVVMHGVDTELFHPATGPEDTIAATGLPGHYLLGCFGRVRHQKGTDLFVRAMIELLPHYPQWTAVVSGRVTAEHKAFGDTLKADVAAAGLTDRIIFQGEVDDIKPWYRRLTLYVAPSRNEGFGLTPLEAMASETAVVASNAGAYEEMIVTGETGWVVGAGDYASLRDAIKTYLADPALAKAHASAGLAHVRSTFPLEKEATCLGEVYEALQRG | not soluble |
| MGSDKIHHHHHHMYKWHNVFQPIFQIDQNMNHKVDHYEMLLRDENDQFPNHDFFRIISTEEDNQKWIQIEEKSLKNLFSLHPNIHVNLNVEPIQFAYPSVWEFLRRIYDKYGQKVIIEITERQLQAGNIGNRQFDCAFQRINDIGFKIALDDVDSGSNSFSFVNHHVNQISVIKLSLLIFDNVSSGTTISFIDSWAAFAKEKHLDLVIEAVRSKEIAKRFAGNKHIFQQGYYWEKALKLEDIY | not soluble |
| MKLPGPDHPISITANPNGVRISADGKVIAETRRALTLQEASYPPVQYIPREDADMRLLEKTARVTHCPYKGDASYFSIVAGGEPQANAVWSYENPFPAMAEIAGYLAFYPQKVQTEEFKP | not soluble |
| MGSDKIHHHHHHMAEQPLIGKTILTTRAAGQSSPFAAQLRAAGAAVIEMPTLEIGPPSSWLPLDEAIAAIADFDWLILASANAVEAVQQRLAAQQKSWSDVPCAIAVVGQKTAQVLAAQGGKADYIPPEFIAESLVEHFPQPVAGQRLLFPRVETGGREQITQALQSQGAIVVEVPAYESRCPSQIPDDALIALRQAHLNLISFTSSKTVRNFCQLMASNLGVDWSARISGVAIASIGPQTSITCQELLGRVEVEAQEYTLDGLLLAIEQWARQTT | not soluble |
| MEDRIQKAVELFKSGYNCSQSVVAAFADMYGFTQEQAVRMSASFGGGIGRMRETCGAACGLFLIAGLETGATEATDREGKAANYAVVQELAAEFKKRNGSLICGELLGLKKKEPISTVPEERNTQYYSKRPCAKMVEEAARIWVEYLEKHPK | not soluble |
| SLYATPIGYADTRFETAADAPRQGVETPYAANVQVYESFRGGLVGLEPDDRVVVVWWADDADRDVLAVRDGDRGVFTTRSPARPNPVCITPCELLAVDAADGTLAIRGWIWRTARRSWI | soluble |
